Results as given in the DeepSol protein solubility set.

experiment: soluble on expression in E. coli; label from the status in PepcDB or PDB records

Row | Sequence | soluble on expression in E. coli
1 | MTLLGIKLKQTQQLNQRLQQSLRVLQMSGIELEREVENWLSDNPLLERKDTDEFSDAEFSHYTAPARQIGGDEGEDMLSNIAGEQDFKQYLHAQVCEHPLSDQEAACVHILIDFLDEQGYLTDSIEDILDHTPLEWMLDEAMLQHALTALKKFDPAGVAAADLNESLILQIERLGECAAKPAALHIVRNALDSIDGNRSQTLARIKKHLPQTDSGTLEAALDLIASLNPFPAAGFASSTPTPYSDEALANLLAFRGMEVSRRTIAKYRESFEIPAAHKRKTAE | not soluble
2 | MTLPDSKKDQTARHVAILQESYRHYTGRYLFDPKLGASEAIVWLEQAPFALVSHGTQPDPIFNYGNQTALQLFGMTWDEFTRMPSRLSAEPVDRAERTRLLDHVSRDGYIDDYTGVRIAADGRRFLIRHATVWNLLDESGRFYGQAAMIPEWEVLQPVFTAD | not soluble
3 | MTLPFKNGRGTMKINGVTIQMLPAASGDCIYLEFPDSDFRMLIDGGYAKTYQKYLKKFLLKLAAEGKRLNLIVVTHIDDDHISGIRALLKENGDSRNPKIIEIDEIWFNSLNQCITSRNAEQGMSFAVKIILKSMCSTDIDFECEYKKQNISYTNGKNLAELIQAGGYRWNASVVNNLVSKGQIVQFGDLKITILNPGIETLTKMGKKWLYHLKQINSNNIEITRDPLFDAAFEGFLLNNEKNIEFKQENISYSSEDLDWLDKYAEYKDIEMDSKITNCSSIAILIDYKDIKMLFPGDSPIQLFENELPKILDVIKLPHHGSAKNISLEFIKNTKVKYYLLSTDGKRYIDHPGKAVIANIIKNTGNNTELIKNYEIKFLKGLGKLDAED | not soluble
4 | MTLPLNPAMAATFPPPVMEARRWIQGLSFPADRPLLNLSQAAPVEPPPAELRAALAEAALHDPQAHLYGPVLGLPALRAEIAAQWSAAYGGRIEPAQVAITQGCNQAFCAIMATLAGAGDEVILPTPWYFNHKMWLDMQGVMAVPLPTGPCLLPDAEEAAALVGPRTRAIVLVSPNNPGGVEYPAATLEAFRDLARARGLALIVDETYRDFDSRTGAPHALFADPDWDGVLVHLYSFSKAYRLTGHRVGAVVASAARLAQIEKFLDTVAICPSQLGQIGALWGIRNLAQWVAGERAEILARRTAMVGGFSALDGWTLLGCGAYFAYVEHPFDTPSDRLAPRLVQEAGVLLLPGTMFQPEGSEAGARQFRMAFANVDQAGIAELFSRLAQVTD | not soluble
5 | MTLPPTSIADRIARAQPAFSRTQHRMAEYVLAHQFRVATMTIDEFAVAVGVSVATANRFARVLELPGYPQFRAELARGFESALEPVEKLRIELAHSASAAQVFAATLQEDIHNAQMTLQALDAGACERAVEAILNAERVFIIGFGTSGFLAGLLQRGLCMHLHAVESLAGPGGVSHAARQMSRMTSRDLVIALAFPRYLADTVTLANAAKLAGVPVLVLTDKPTSPLAPCATVALYAHMSRQLSSNAETAALGLIEALSAAVAHRAKNSIAAAAGVAQSVMPWLIHGEAGAGKR | not soluble
6 | MTLSSKTTKKNTSQHKHPRYVDCDNCSMRAICQPIGADNQAIDLTSNYLTRRVEVSTEQSSSLPLNQSAGVALFEQASPLTAIFAVCSGTFKLCQKNDDGLDRIVGFRFPGELIGEDALFLEVYNYSAVALGDNSVCEVYVDSLSACSQLAPELQQNLIQLLTKQSYEQQRNAHAITGKKSADCLLAAFLLNICQRNAKHSGNETEIELTISRQDIASFLGMRRETLSRLLSKFQHEQLISLNGKQLSLLSLNHLKQLSNQ | not soluble
7 | MTMGKRTQAPALEVRLLREGIIESKHIVQAVVCDERGRVLSVAGNSETATFVRSALKPFQALAVTTTGTLERYDLSDRDLAIITSSHKGTIEQVRQAFNILWRADLDPSVLQCPIPQGKRSPLEYNCSGKHAGMLAICQQRHWPLNNYMDRKHPVQQLVLAKVAELLRMPAAEFISAHDDCGVPTYLLQLGQISSLYALLAASNNLDMERIVRAMTHHPSMVAGEREFDTELMRLTPGELVSKSGAEGVQCIGRLGEGMGLTIKVMDGAKRAKYAVAIHLLQQMGWITPSVAESLAEKFMNPGKYTRLEVVGELSLLLEHHHHHH | not soluble
8 | MTMIMRSIIDSLEALFSSFFSSIAPNLYEVLNFHCKKHTGMNFAEATLKNPKLTYEFLVKFFDSEMAVDVLDYLLSNFLKKYSIRAYGILKSFKSGDNKKLIEVAKLYSKVMQNGGGKDRD | not soluble
9 | MTMLLDGGPQFPGLGVGSFGAPRHHEMPNREPAGMGLNPFGDSTHAAAAAAAAAAFKLSPAAAHDLSSGQSSAFTPQGSGYANALGHHHHHHHHHHHTSQVPSYGGAASAAFNSTREFLFRQRSSGLSEAASGGGQHGLFAGSASSLHAPAGIPEPPSYLLFPGLHEQGAGHPSPTGHVDNNQVHLGLRGELFGRADPYRPVASPRTDPYAAGAQFPNYSPMNMNMGVNVAAHHGPGAFFRYMRQPIKQELSCKWIDEAQLSRPKKSCDRTFSTMHELVTHVTMEHVGGPEQNNHVCYWEECPREGKSFKAKYKLVNHIRVHTGEKPFPCPFPGCGKIFARSENLKIHKRTHTGEKPFKCEFEGCDRRFANSSDRKKHMHVHTSDKPYICKVCDKSYTHPSSLRKHMKVHESQGSDSSPAASSGYESSTPPAIASANSKDTTKTPSAVQTSTSHNPGLPPNFNEWYV | soluble
10 | MTMNANIEVRLKSPAHPGGFIKHEIIEPLALSVSNAAEVLGVSRAALSALLNERAHLPPEMALRIEKAFGVSMDTLMRMQNSYDIAQTRKRAEEIKVAPFSGKPIESNSVV | not soluble
11 | MTMTMSYKAIEKIPRCSWNREEPGEQWNKIYSVETGLLGTYSFEWQSQVANKTMRKRNTNSICGRQHEPHCPVSITRAIAQPQLLTFPDSLASRGGHMTQSGQCHVSGSLLGRGHKSRGR | soluble
12 | MTNEADKFVVDVIYALPTQQKVISVSVLPGTSAIDIVRQSNMVSFFPEIELETVKLGVFSNVVKHDQVILPGQRVEIYRPLIADPKDVRRRRADKAKDEGRANKVTGGRVS | soluble
13 | MTNEFEILKPGKLLLASANLLDPNFKRTVLLMCEHNEEGSIGFILNKPMEFKVCEAISGFDEIDEPLHMGGPVQVDTVHVLHTRGDVIDGAVEVIPGLFWGGDKEQLSYLINTGVIKASEVRFFLGYAGWSAGQLEAEFEEGSWYTADASSEQVFTDEYERMWSRSVRSKGGEYCYVANSPELPGMNLEHHHHHH | not soluble
14 | MTNLNYQQTHFVMSAPDIRHLPSDTGIEVAFAGRSNAGKSSALNTLTNQKSLARTSKTPGRTQLINLFEVADGKRLVDLPGYGYAEVPEEMKRKWQRALGEYLEKRQSLQGLVVLMDIRHPLKDLDQQMIEWAVDSNIAVLVLLTKADKLASGARKAQLNMVREAVLAFNGDVQVETFSSLKKQGVDKLRQKLDTWFSEMQPVEETQDGE | soluble
15 | MTNNDTTLQLSSVLNRECTRSRVHCQSKKRALEIISELAAKQLSLPPQVVFEAILTREKMGSTGIGNGIAIPHGKLEEDTLRAVGVFVQLETPIAFDAIDNQPVDLLFALLVPADQTKTHLHTLSLVAKRLADKTICRRLRAAQSDEELYQIITDTEGTPDEA | soluble
16 | MTPDHLLMLVALATFQKGIVPPTPAMELVMQVGACYHALTDAPRMGKLRLFLGKKPMAKLEQFLTEIENETDADF | not soluble
17 | MTPFAEAVRQLRERKGVTQKEMAAAIGVSPAYLSALEHGKRGKPSFDLLQRIAGYFNIIWDEAEELFFLAGSSDPKVVIDTVGLPPQYTAFANRLARDIRKLPPSVVEELSAVLQKSRSCD | not soluble
18 | MTPLERYQADLQRPDFFHDAAQANAVKHLQRLYDDLVAADHAKPGLFGKLLGRKSGGPVKGLYFWGGVGRGKTYLVDTFFESLPFEQKVRTHFHRFMKRVHEELKTLKGEKNPLTIIGKRFADEARVICFDEFFVSDITDAMILATLLEELFKNGVSLVATSNIVPDGLYKDGLQRARFLPAIALLKEHTEIVNVDSGVDYRLRALEQAELFHWPLSEQVEEEMARSFKALTPDCAKAQRDEALMIENREIRARLTCDDVAWFEFRELCDGPRSQNDYIELAKIFHAVLISNVEQMGVTKDDMARRFINLVDEFYDRSVKLIISAEVELKDLYSGGRLEFEFQRTLSRLLEMQSHEYLTRPHRPAAALEHHHHHH | not soluble
19 | MTQATPFQLPPLALYVHIPWCVRKCPYCDFNSHAAGPELPEEAYVDALLADLEQDLRHVHGRRLGSIFFGGGTPSLFSAKALGRLLEGVERRVGFADGIEITLEANPGTFEQVKFADYRRLGINRLSIGVQSFQADKLQALGRIHDGAEAVRAADMARQAGFDNFNLDLMHGLPGQSLDDALADLRQALALAPTHLSWYQLTMEPNTVFWSQPPELPEDDILWDIQEAGQALLDEHGYRQYETSAYARDGLRARHNLNYWSFGDFLGIGAGAHAKLSAPDGRIVRTWKTRLPKDYLNPQKAFQAGERPLEAADLPFEFMMNVLRLVDGVPAALYPQRTGQPLAAIADACAAARDAGLLADDPQHLRPSERGQLFLNDLLQHFLP | not soluble
20 | MTQIPPSRLHSPLDRLLVEAQRALDTVFGNPPAERPNPAGDTPDAALAPAQRQHAAGLMRINHVGEVCAQGLYFGQAAVARDDHTRQHLLTAAQEETDHLAWCADRLRELESRPSLFNPLWYAGSYALGAVAGLRGDDWSLGFVVETERQVEAHLDEHLETLPETDQRSRAILRVMKIDEARHADHAEQAGARILPPPIPSAMALASKLMKTIAYRFLEHHHHHH | not soluble
21 | MTQLPPAIFLMGPTAAGKTDLAIELTKVLPCELISVDSALVYRGMDIGTAKPSRELLAQFPHRLIDILDPAESYSAADFRTDALAAMADITARGKIPLLVGGTMLYYKALLEGLADMPAADPQVRAELEEEAARLGWQALHDQLAAVDPESAARIHPNDPQRLTRALEVYRVSGLTMTAHRQRQLAQSTEAGASGRSQLPYTVANLAIAPANRQVLHQRIAQRFTQMLEQGFIDEVVALRSRSDLHAGLPSIRAVGYRQVWDHLDGKLTSAEMQERGIIATRQLAKRQFTWLRSWADLQWLDSLDCDNLPRALKYLGTISILSLEHHHHHH | not soluble
22 | MTQPDRGKDRAGRRTKRFLTPSEKYEIWLQLVRQEVTIAEAAEQQQVDRSTIMRIRTVAKEGALAALAASKPGVAAAQRDYEMEAAKAEIARLSEAVKQMAVKLTLVEGKGGWA | not soluble
23 | MTQSDYIESSEHIKDTQIGYCKYGHGPNYILAICGAVGCYKKDWPLKLLSHFPPDQVTIVGIDPPGYGTSRPPERKQEVQRCMKDSEYCLGLMETLKLEPFTVMGWSEGARTTVHVAAKGKEKVNRMIVMAGATKVNHLGAMAFKGMRETNHWLAAGRQPYLDHYSPETLRTQWAALCDVVDQVHSFCGGRFPCDLVLPQVKCPTLVMNGGLDRFCGDPNVCFIPVLKSLAKVEIHAQGGHDFYLKYPKWFSGKVLEFLKSTEKK | not soluble
24 | MTQTQPVTPTPPASFQTQHDPRTRLGATPLPGGAGTRFRLWTSTARTVAVRVNGTEHVMTSLGGGIYELELPVGPGARYLFVLDGVPTPDPYARFLPDGVHGEAEVVDFGTFDWTDADWHGIKLADCVFYEVHVGTFTPEGTYRAAAEKLPYLKELGVTAIQVMPLAAFDGQRGWGYDGAAFYAPYAPYGRPEDLMALVDAAHRLGLGVFLDVVYNHFGPSGNYLSSYAPSYFTDRFSSAWGMGLDYAEPHMRRYVTGNARMWLRDYHFDGLRLDATPYMTDDSETHILTELAQEIHELGGTHLLLAEDHRNLPDLVTVNHLDGIWTDDFHHETRVTLTGEQEGYYAGYRGGAEALAYTIRRGWRYEGQFWAVKGEEHERGHPSDALEAPNFVYCIQNHDQIGNRPLGERLHQSDGVTLHEYRGAAALLLTLPMTPLLFQGQEWAASTPFQFFSDHAGELGQAVSEGRKKEFGGFSGFSGEDVPDPQAEQTFLNSKLNWAEREGGEHARTLRLYRDLLRLRREDPVLHNRQRENLTTGHDGDVLWVRTVTGAGERVLLWNLGQDTRAVAEVKLPFTVPRRLLLHTEGREDLTLGAGEAVLVG | soluble
